Data taken from PMC11172311, “Structural and Interactional Analysis of the Flavonoid Pathway Proteins: Chalcone Synthase, Chalcone Isomerase and Chalcone Isomerase-like Protein” (International Journal of Molecular Sciences, 2024).
Values belong to the substance of their own block, whether it stands above or below them.

Tests used:
[1] = biological target: Panicum virgatum chalcone synthase (PvCHS) (Panicum virgatum)
[2] = biological target: Panicum virgatum chalcone synthase (PvCHS) (Panicum virgatum); assay: ITC; PvCHS in the well, PvCHIL in the syringe; 22 injections of 2 µL; PBS; no small molecule added
[3] = biological target: Panicum virgatum chalcone synthase (PvCHS) (Panicum virgatum); assay: ITC; PvCHS in the well, PvCHIL in the syringe; 22 injections of 2 µL; PBS; with naringenin chalcone at 5x molar excess
[4] = biological target: Panicum virgatum chalcone synthase (PvCHS) (Panicum virgatum); assay: ITC; PvCHS in the well, PvCHIL in the syringe; 22 injections of 2 µL; PBS; no small molecule added; remark: listed apart in the source
[5] = biological target: Panicum virgatum chalcone synthase (PvCHS) (Panicum virgatum); assay: ITC; PvCHS in the well, PvCHIL in the syringe; 22 injections of 2 µL; PBS; with naringenin at 5x molar excess
[6] = biological target: Panicum virgatum chalcone synthase (PvCHS) (Panicum virgatum); remark: listed apart in the source
[7] = biological target: Panicum virgatum chalcone isomerase-like protein (PvCHIL) (Panicum virgatum); assay: FRET or BRET; PvCHIL labelled with ATTO 488 (donor) held at 1 µM, PvCHS labelled with ATTO 550 (acceptor) gradually increased; PBS pH 7.4; spectra in triplicate
[8] = biological target: Panicum virgatum chalcone isomerase (PvCHI) (Panicum virgatum); assay: FRET or BRET; PvCHI labelled with ATTO 488 (donor) held at 1 µM, PvCHS labelled with ATTO 647N (acceptor) gradually increased (0.5 to 10 µM); PBS pH 7.4; spectra in triplicate
[9] = biological target: Panicum virgatum chalcone synthase (PvCHS) (Panicum virgatum); assay: crystal structure; PvCHS co-crystallised with naringenin and CoA, space group P1, four molecules in the unit cell; hanging drop, 277 K; data at 100 K

Vmax of PvCHS for p-coumaroyl-CoA (naringenin plus naringenin chalcone formed) in the presence of PvCHI against PvCHS alone [1]: 24 fold | Vmax of PvCHS for p-coumaroyl-CoA in the three-protein system (PvCHS, PvCHI and PvCHIL) against PvCHS alone; PvCHIL does not compete with PvCHI [1]: 437 fold
Substance: Panicum virgatum chalcone isomerase (PvCHI) (enzyme)

Kd [2]: 76.3 µM | dH [2]: 31.8 kcal/mol | Kd [3]: 170 µM | dH [3]: 36.4 kcal/mol | dH [4]: 31.9 kcal/mol | Kd [5]: 7.46 µM | dH [5]: 5.34 kcal/mol | Vmax of PvCHS for p-coumaroyl-CoA in the presence of PvCHIL (5:1 molar ratio) against PvCHS alone [6]: 7.7 fold
Substance: Panicum virgatum chalcone isomerase-like protein (PvCHIL) (natural protein)

Kd [7]: 26.5 µM | Kd [8]: 0.637 µM | stoichiometry N [9]: 2
Substance: Panicum virgatum chalcone synthase (PvCHS) (enzyme)
